Laboratory results published in the DeepSol protein solubility set.

Assay: soluble on expression in E. coli; label from the status in PepcDB or PDB records

Row | Sequence | soluble on expression in E. coli
1 | MGSDKIHHHHHHMKHKIVEVKNVLACLELMENLQGRSSITPGIGLIHGPSGFGKTTTLCWLINQLGAMNAIYVRCYATDTPSSFLARIMEELGSEMLYPMRKSVDFIVDRMNERQLPLFIDEADHIVGQSKIMETIRDLYDATEQPVVLVGMEEIARRISHRKQLFNRVSEWVEFQPADLSDVHSFAAELLDDRITVADDLLEHIRKRSGGEVRRILTALEKIERSAIANDMDIVTLDNWGDQPLFLEFRR | not soluble
2 | MGSDKIHHHHHHLGDHTLNQVTDTPLSQQHITQHTQVAPSRLAAAGLSASIMLLKRILKPFEHVQRHRHSWGQVIYASQGVLSVITPAGRYIVPPEQAVWVPPFVDHEVIALSQVQLSSLYLDDTQIGGFPPCCTCLNVKPVLQLLLQEVNAFMKSEAGLIDPDFKDSVMRLLMVIRDFMVLAPKVALDLPYPKDKKLLRITEALLADPSEQRTLVDWQREVGASARTLARLFKQQTGLSYSQWLQRLRLQVAIQMLSRGESVLTTALSLGYASGSAFGYMFRQLMGVAPSQYLLAQSTLPKVQCQK | not soluble
3 | MRKSLEIGKCVVLEVLTPRGTNLGRFMEFTEEAWKTGIDAFTVTDMPMGRVRMAPWAASHLLVESGKDVLMHFTRNTRNMIRIQSDLLGCHALGVKNLLLLSGDNPSHGDYPETTSVNDIDILDLIRLTKLMNEGTDLAGNKIYGKTDFFVGGALNPFSDKDIKRAKQKIEAGVDFLVTQPLFNSEVAKKIKEELNTKILASIVFFENAKQMSYFSSVPGIEIPDEIVNSTEKGDDYLKEKSFESVLRFVEETKGVLDGFYIVAIVKDLEKIRKVVEIAKS | not soluble
4 | SLQVDASGHQILLNYRKERSLQEFVPQVSLTEVLTGKINANTVKNKIVLIGTTAESFEDYSFTPNITNQGAIRKYQVLSLQAQMISQLLSAALDGRSLIWAWSVWQETIWIWGWSLTGSLLAWYIR | not soluble
5 | METRKAEGEVIVVGAGLAGLVAAAELADAGRRVLILDQEGEQNLGGQAHWSFGGLFFVDSPEQRRLGIRDSLDLARRDWETAAGFDRPEDHWPRKWAEAYLEFAAGEKREWLHRQGMRWFPAVGWAERGGAGAGLPGNSVPRFHITWGTGPGVLEPFVRRVREHQRAGRIEFRFRHRVRGLTLTAGRVTGVHGDVLEPSDVGRGETSSRVVTGDFELTAQAVLITSGGIGGNHELVRRYWPTERLGPAPEVMLSGVPRHVDGLLQQQVVAQGGSLINPDRMWHYTEGVRNWDPVWPQHGIRILPGPSSLWLDPSGRRLPFPHIPGASSYDTLRHITTHGYPHTWFLLNRAVIKREFGLSGSEQNPDLTGKDLRLTLRRASKHVPGPVQAFMDRGEDFVVRDNLRDLVRGMNELTGGELLDYATVEREVLDRDLQVHNVAGKDAQLAIVRGARAILSERLTRVAKPAPLLDPAQGPLIAVRLSVLTRKSLGGLETDLQGRVIGAGGQPLPDLYAAGEVAGFGGGGYHGYRALEGTFLGGCLFSGRAAGRAIAGAL | not soluble
6 | MRRICKDERRIQSVNSSEEIAVSGMSAGRSAMRMGPAELVQAAAMARRFYLEGKSKIQIAEEFGVSRFKVARVLETALERDLVRIEIRVPAELDAERSDALRARYGLRHAVVVESPADAEETPDPENLGEVAADLLGELVNEGDVLGLAWGRSTIHMAAALDRLPPCTVVQLTGVYDAGTAERGSVEAVRRAAQVSGGDAHPIYAPMLLPDAATAQALRHQTGIARAFEYFDKVTVACVSIGSWEPGISTVHDMLSDEERAHYASLGVAAEMSAHLFDAEGRRVGRDLGERCITVKADQLRRIPEVVAIAGGQRKAAAIDAVLRSGLVTSLVTDTSAADYLMTVGSAPKSTLNRTDPDGI | not soluble
7 | MLVPSANRWVPKFKSKKTEKKLAPDGKTELLDKDEVERKMKSLLNKLTLEMFDAISSEILAIANISVWETNGETLKAVIEQIFLKACDEPHWSSMYAQLCGKVVKELNPDITDETNEGKTGPKLVLHYLVARCHAEFDKGWTDKLPTNEDGTPLEPEMMSEEYYAAASAKRRGLGLVRFIGFLYRLNLLTGKMMFECFRRLMKDLTDSPSEETLESVVELLNTVGEQFETDSFRTGQATLEGSQLLDSLFGILDNIIQTAKISSRIKFKLIDIKELRHDKNWNS | soluble
8 | MGLWYRMLENQDLEEVITVRVQDPRVQNEGSWNSYVDYKIFLHTNSKAFTAKTSCVRRRYREFVWLRKQLQRNAGLVPVPELPGKSTFFGGSDEFIEKRRQGLQHFLEKVLQSVVLLSDSQLHLFLQSQLSVPEIEACVQGRGAMTVSDAILSYAMSNCGWAQEERQSTSHLAKGDQLNSCCFLPRSGRRSSPSPPLSEEKEQLETWAPVMDSEGPSSESPTLLPSSSLPACWDPARPEEGLSVSQPARRAVAADQAGPMEPTQLDTAWDK | soluble
9 | MTFQNKKILVAGLGGTGISMIAYLRKNGAEVAAYDAELKAERVAQIGKMFDGLVFYTGRLKDALDNGFDILALSPGISERQPDIEAFKQNGGRVL | not soluble
10 | MGSDKIHHHHHHMDKGKSVKSTEKSVGMPPKTPKTDNNAHVDNEFLILQVNDAVFPIGSYTHSFGLETYIQQKKVTNKESALEYLKANLSSQFLYTEMLSLKLTYESALQQDLKKILGVEEVIMLSTSPMELRLANQKLGNRFIKTLQAMNELDMGEFFNAYAQKTKDPTHATSYGVFAASLGIELKKALRHYLYAQTSNMVINCVKSVPLSQNDGQKILLSLQSPFNQLIEKTLELDESHLCTASVQNDIKAMQHESLYSRLYMS | not soluble
11 | MAGKLIANLIVMGSGIIGRAMLQAYRKALDNANKTGVAHETINNIRRASKTMTEQEARQILGVSEQSTWEEIAQRYDNLFERNAKSGSFYLQSKVHRAKECLENVYQKNKQDGTPP | soluble
12 | AASSLDELVALCKRRGFIFQSSEIYGGLQGVYDYGPLGVELKNNLKQAWWRRNVYERDDMEGLDASVLTHRLVLHYSGHEATFADPMVDNAKARYWTPPRYFNMMFQDLRGPRGGRGLLAYLRPETAQGIFVNFKNVLDATSRKLGFGIAQIGKAFRNEITPRNFIFRVREFEQMEIEYFVRPGEDEYWHRYWVEERLKWWQEMGLSRENLVPYQQPPESSAHYAKATVDILYRFPHGSLELEGIAQRTDFDLGSHTKDQEALGITARVLRNEHSTQRLAYRDPETGKWFVPYVIEPSAGVDRGVLALLAEAFTREELPNGEERIVLKLKPQLAPIKVAVIPLVKNRPEITEYAKRLKARLLALGLGRVLYEDTGNIGKAYRRHDEVGTPFAVTVDYDTIGQSKDGTTRLKDTVTVRDRDTMEQIRLHVDELEGFLRERLRW | soluble
13 | MPPASLTFEPPSVVAVFATHAVLCWEQPRTPHTTSFAEHMAWEYQIEYNCSCRVRQQPYCATGSNTFVLLATPHEGETYYVRVVAKASFAGSTSGLVSAKAAFTASCNVAMPWRCSARPPVCVFDALYLSANVEAEDIAALSAARSSTIDNAAVLDGKSVCYTLEGDIAVRTYRMLYSGTAALPVGPARTVYYMVATTRLHTGKRTRAMELLSIMQREGASIVFCGIGDGGRLALCAALTFLSFLTTACPALCASVLCITYGTPRLLLKEGPRLLAHTLPLSGQLLHFTQLPLIEHTPFVSDTVALSQRGSGVAVDTPPLGYANGFYRNMLLGAQCRVTDWTGLHFRLSSPDELSTEAEEAEVFDVVGQLRALSELFFPSSLQWLSPSVTSVSCRTEGPLLHVSVEGLTCITALG | not soluble
14 | MACKNPKKFFPIRKSPVLRDGAFKGKLVLVTGGGTGIGKAIATTFAHLRATVVIAARRMEKLEQTARDITKITGGTCEPFQMDIKDPGMVSDAFDKIDMKFGKVPEILVNNAAGNFIMATELLSSNAYGTIIDIVLKGTFNVTTELGKRCIQNKTGASITSITAGYARAGAPFIVPSAVSKAGVETMTKSLATEWSKYGLRFNAVSPGPIPTKGAWGRLNSGEMGDIAEKMKFLNPEGRVGSPEEVANLVAFISSDHMSFLNGAIIDLDGGQQHFNHGSHMGDFLHSWDHKNWEDAENLIRGRTGKEKA | not soluble
15 | MSDSQINSRTTIDEYLSRADWRVNANANQDYSLGGMILNAAGKVTANYWLDQVFSPAASAAHREGSIHIHDLDMLSGYCAGWSLRQLLEEGFGGVPGTISSRPPKHFSSACGQIVNFLGTLQNEWAGAQAFSSFDTYMAPFVRLDNLSYDEIVQDMQEFIFNLNVPSRWGTQTPFTNLTFDWTCPADLKDSVPFIGEEPVDFTYGELQEEMDLINRAFIQVMSAGDADGRPFTFPIPTYNITKDFDWDSPNTEALFTMTAKYGLPYFQNFINSDLDPGMIRSMCCRLQLDLRELLKRGNGLFGSAELTGSIGVVTLNCARLGYLYAGDEQALLGAVDELIELGIDTLERRRDFVATHMRQGLYPYSARWLPSLDNHFSTIGVNGCNEMIRNFTHDAYNLTDPQGHAQVARLLDHINARLVQAQERTGHLFNLEATPAEGTTYRLAKEDLKRYPDMLHAGTPEEPYYTNSSQLPVSHTPDPFEALALQEDLQSKYTGGTVLHLYMGAAMSDGKACAALVRRALTNFHLPYITITPTFSICPDHGYISGEHPECPQCGATTEMWTRVMGYFRPVQSFNTGKKGEFHERTYFAEALI | not soluble
16 | QKKDTSNHFHVFVGDLSPEITTEDIKAAFAPFGRISDARVVKDMATGKSKGYGFVSFFNKWDAENAIQQMGGQWLGGRQIRTNWATRKPPAPKSTYESNTKQ | soluble
17 | ENLKLGFLVAQPEEPASQTQWKFADKAGKDLGFEVIKIAVPDGEKTLNAIDSLAASGAKGFVISTPDPKLGSAIVAKARGYDMKVIAVDNQFVNAKGKPMDTVPLVMEAATKIGERQGQELYKEMQKRGWDVKESAVMAITANELDTARRRTTGSMDALKAAGFPEKQIYQVPTKSEDIPGAFDAANSMLVQHPEVKHWLIVGMNDSTVLGGVRATEGQGFKAADIIGIGINGVDAVSELSKAQATGFYGSLLPSPDVHGYKSSEMLYNWVAKDVEPPKFTEVTDVVLITRDNFKEECEKKGLGGK | soluble
18 | MEKLVAYKRMPLWNKQTMPEAVQQKHNTKVGTWGKITVLKGALKFIELTEEGEVLAEHLFEAGADNPMAQPQAWHRVEAATDDVEWYLEFYCKPEDYFAKKYNTNPVHSEVLEAMQTVKQGKALDLGCGQGRNSLFLAQQDFDVTAVDQNGLALEILQSIVEQEDLDMPVGLYDINSASIEQEYDFIVSTVVLMFLQADRIPAIIQNMQEKTSVGGYNLIVCAMDTEDYPCSVNFPFTFKEGELADYYKDWELVKYNENPGHLHRRDENGNRIQLRFATLLAKKIKLEHHHHHH | soluble
19 | MAHHHHHHSLSILVTRPSPAGEELVSRLRTLGQVAWHFPLIEFSPGQQLPQLADQLAALGESDLLFALSQHAVAFAQSQLHQQDRKWPRLPDYFAIGRTTALALHTVSGQKILYPQDREISEVLLQLPELQNIAGKRALILRGNGGRELIGDTLTARGAEVTFCECYQRCAIHYDGAEEAMRWQAREVTMVVVTSGEMLQQLWSLIPQWYREHWLLHCRLLVVSERLAKLARELGWQDIKVADNADNDALLRALQEG | soluble
20 | PGAPSTVRISKNVDGIHLSWEPPTSPSGNILEYSAYLAIRTAQMQDNPSQLVFMRIYCGLKTSCTVTAGQLANAHIDYTSRPAIVFRISAKNEKGYGPATQIRWLQGNSK | soluble
21 | MTNPGDGAAGAVDCATLDHWRPRLAAIAAAAGQDDAAHDLGHLRRVWGAARAMLQAHPEADALVVLAASYLHDLVNLPKNHPERHLASRQAAAAARERLARAGFPAARLDAVAHAIEAHSFSAGIAPRTIEARIVQDADRLDALGPVGLARMFHVGGSLGRALAHPSDPLAAQRALDDSRYTLDHIEAKLARLPHGMQTEAGRRLGEQRLAWLRDFRAAFAAQWGGGQLRLEHHHHHH | soluble
